# Measurements taken from patent US20230365641A1 (XILIO DEVELOPMENT, published 2023).
# Substitutions are numbered along the chain they refer to. Numbers in names are those of the source. Where two headings read alike, the source gives them in different places.
# B1: TC4 (Fc fusion)
# heavy 1: QVQLVQSGVEVKKPGASVKVSCKASGYTFTNYYMYWVRQAPGQGLEWMGGINPSNGGTNFNEKFKNRVTLTTDSSTTTAYMELKSLQFDDTAVYYCARRDYRFDMGFDYWGQGTTVTVSSASTKGPSVFPLAPSSKSTSGGTAALGCLVKDYFPEPVTVSWNSGALTSGVHTFPAVLQSSGLYSLSSVVTVPSSSLGTQTYICNVNHKPSNTKVDKKVEPKSCDKTHTCPPCPAPELLGGPSVFLFPPKPKDTLMISRTPEVTCVVVDVSHEDPEVKFNWYVDGVEVHNAKTKPREEQYASTYRVVSVLTVLHQDWLNGKEYKCKVSNKALPAPIEKTISKAKGQPREPQVYTLPPCRDELTKNQVSLWCLVKGFYPSDIAVEWESNGQPENNYKTTPPVLDSDGSFFLYSKLTVDKSRWQQGNVFSCSVMHEALHNRFTQKSLSLSPGGGSSPPGGGSSGGGSGPAPTSSSTKKTQLQLEHLLLDLQMILNGINNYKNPKLTAMLTAKFAMPKKATELKHLQCLEEALKPLEEVLNLAQSKNFHLRPRDLISNINVIVLELKGSETTFMCEYADETATIVEFLNRWITFAQSIISTLT
# heavy 2: QVQLVQSGVEVKKPGASVKVSCKASGYTFTNYYMYWVRQAPGQGLEWMGGINPSNGGTNFNEKFKNRVTLTTDSSTTTAYMELKSLQFDDTAVYYCARRDYRFDMGFDYWGQGTTVTVSSASTKGPSVFPLAPSSKSTSGGTAALGCLVKDYFPEPVTVSWNSGALTSGVHTFPAVLQSSGLYSLSSVVTVPSSSLGTQTYICNVNHKPSNTKVDKKVEPKSCDKTHTCPPCPAPELLGGPSVFLFPPKPKDTLMISRTPEVTCVVVDVSHEDPEVKFNWYVDGVEVHNAKTKPREEQYASTYRVVSVLTVLHQDWLNGKEYKCKVSNKALPAPIEKTISKAKGQPREPQVCTLPPSRDELTKNQVSLSCAVKGFYPSDIAVEWESNGQPENNYKTTPPVLDSDGSFFLVSKLTVDKSRWQQGNVFSCSVMHEALHNHYTQKSLSLSPGGPPSGSSPVPLSLYSGSGGGAVNGTSQFTCFYNSRANISCVWSQDGALQDTSCQVHAWPDRRRWNQTCELLPVSQASWACNLILGAPDSQKLTTVDIVTLRVLCREGVRWRVMAIQDFKPFENLRLMAPISLQVVHVETHRSNISWEISQASHYFERHLEFEARTLSPGHTWEEAPLLTLKQKQEWISLETLTPDTQYEFQVRVKPLQGEFTTWSPWSQPLAFRTKPAALGKD
# light: EIVLTQSPATLSLSPGERATLSCRASKGVSTSGYSYLHWYQQKPGQAPRLLIYLASYLESGVPARFSGSGSGTDFTLTISSLEPEDFAVYYCQHSRDLPLTFGGGTKVEIKRTVAAPSVFIFPPSDEQLKSGTASVVCLLNNFYPREAKVQWKVDNALQSGNSQESVTEQDSKDSTYSLSSTLTLSKADYEKHKVYACEVTHQGLSSPVTKSFNRGEC
# B2: TC46 (Fc fusion)
# heavy 1: B1 heavy 1
# heavy 2: B1 heavy 2 with V458M, L460Y, S461D, S464H, G465P, S591A, N592C, S637C
# light: B1 light
# notes: Mask CD122 (C122A, N123C); also called PembroFab-IgG1 (N297A, MST, RF)-CD122*
# What was measured:
# [1] = target: T1, PD-1 (antigen of the ELISA and of the in vitro affinity measurement) (UniProt Q15116 25-167, limits assumed); assay: kinetic binding table: TC4 captured as ligand (capture level 74.3 RU), hPD1-his as sample; method not given
# [2] = target: T1, PD-1 (antigen of the ELISA and of the …); assay: ELISA on PD-1
# [3] = target: T2, PD-1 shown on cells (Raji-PD-1 cells); CD3/CD28 activated human CD8+ T cells; PD-1 effector cells of the … (human, UniProt Q15116 25-288); assay: flow cytometry, on-cell binding to PD-1 expressing Raji cells, anti-human IgG-PE
# T2 construct: whole, on cells; Human is stated for the PBMCs; also called hPD-1; PD1 expressing Raji cells
# [4] = target: T2, PD-1 shown on cells (Raji-PD-1 cells; …); assay: cell-based or functional assay
# [5] = target: T2, PD-1 shown on cells (Raji-PD-1 cells; …); assay: cell-based or functional assay; remark: listed apart in the source
# [6] = target: T1, PD-1 (antigen of the ELISA and of the …); assay: ELISA on PD-1; remark: listed apart in the source
# [7] = target: T2, PD-1 shown on cells (Raji-PD-1 cells; …); assay: cell-based or functional assay; remark: listed apart in the source
# [8] = target: T1, PD-1 (antigen of the ELISA and of the …); assay: ELISA on PD-1; remark: listed apart in the source
# [9] = target: T1, PD-1 (antigen of the ELISA and of the …); assay: ELISA
# [10] = target: T2, PD-1 shown on cells (Raji-PD-1 cells; …); assay: flow cytometry, on-cell binding to PD-1 expressing Raji cells, anti-human IgG-PE; remark: listed apart in the source
# [11] = target: T1, PD-1 (antigen of the ELISA and of the …); assay: ELISA on PD-1; remark: listed apart in the source
# [12] = target: T2, PD-1 shown on cells (Raji-PD-1 cells; …); assay: flow cytometry, on-cell binding to PD-1 expressing Raji cells, anti-human IgG-PE; remark: listed apart in the source
# [13] = target: T2, PD-1 shown on cells (Raji-PD-1 cells; …); assay: flow cytometry on CD3+CD8+ T cells within CD3/CD28 activated human PBMCs, 1 h at 4 C, anti-human IgG PE, % anti-hIgG+; table CD8+ T cells under the graph
# Procedure: Mixed donor lots of human peripheral blood mononuclear cells (PBMCs) were thawed and seeded in medium (RPMI1640, 10% fetal bovine serum (FBS), 2 mM 1-Glutamine, 50 U/mL penicillin, 50 μg/mL streptomycin, 1 μM each of non-essential amino acids, 10 mM HEPES, 1 mM sodium pyruvate, 55 μM B-mercaptoethanol, 10 μg/mL gentamycin) into tissue culture treated plates that were coated for 1 h at 37° C. with 1 μg/ml anti-CD3. Anti-CD28 was added in solution at a concentration of 5 μg/ml. Two days later the PBMCs were collected and transferred into a 96 well v-bottom plate at 100,000 cells per well in FACS Buffer (2% FBS in phosphate buffered saline (PBS)). Test articles were diluted to twice the indicated concentration in FACS buffer. Test articles were added to cells at a 1:1 ratio to the final concentration indicated in the figure and incubated for 1 h at 4° C. The cells were washed three times with FACS buffer and fixed in 4% PFA. Cells were then washed once in FACS buffer. All cells were stained in 100 μL of indicated molecules in FACS buffer for 1 h at 4° C. The cells were washed three times with FACS buffer and fixed in 4% paraformaldehyde (PFA). All cells were subsequently stained in 100 μL with anti-human IgG PE, anti-CD3 PE/Dazzle 594, anti-CD45 PerCP Cy5.5, anti-CD8 BV510, and anti-CD4 BV421 for 30 minutes. Cells were washed twice to remove unbound antibody and analyzed on the BD Celesta by gating on CD3+CD8+ T cells.
# T1 sequence (Q15116 25-167 limits assumed): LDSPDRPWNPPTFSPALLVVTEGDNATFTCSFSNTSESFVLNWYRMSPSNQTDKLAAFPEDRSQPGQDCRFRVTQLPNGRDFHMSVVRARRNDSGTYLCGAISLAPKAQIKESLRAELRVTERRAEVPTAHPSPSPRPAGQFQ
# T2 sequence (Q15116 25-288): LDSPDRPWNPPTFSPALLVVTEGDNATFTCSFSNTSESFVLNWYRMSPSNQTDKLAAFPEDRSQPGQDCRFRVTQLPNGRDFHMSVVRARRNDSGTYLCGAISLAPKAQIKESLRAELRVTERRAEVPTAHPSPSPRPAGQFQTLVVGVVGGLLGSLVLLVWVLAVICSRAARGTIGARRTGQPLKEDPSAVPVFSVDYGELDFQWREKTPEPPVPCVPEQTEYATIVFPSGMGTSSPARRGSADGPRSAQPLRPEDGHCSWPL
Binder,Kd [1] [nM],koff [1] [s⁻¹],kon [1] [M⁻¹ s⁻¹],EC50 (read off the curve) [2] [nM],EC50 (read off the curve) [3] [nM],"EC50, PD-1/PD-L1 blockade RGA (NFAT fold induction) [4] [nM]",EC50 (read off the curve) [5] [nM],EC50 (read off the curve) [6] [nM],"EC50, PD-1/PD-L1 blockade RGA (NFAT fold induction) [7] [nM]",EC50 (read off the curve) [8] [nM],Kd [9] [nM],EC50 (read off the curve) [10] [nM],Kd [11] [nM],EC50 [12] [nM],EC50 [13] [nM]
B1,6.58,0.00306,465000,–,–,–,–,–,–,–,–,–,–,–,–
B2,–,–,–,~0.2,~0.7,1.47,~1,~0.2,1.34,~0.2,0.33,~0.7,0.18,0.8,0.09
